US6071715, “Nucleic acids encoding novel proteins which bind to retinoblastoma protein” (Board of Regents, The University of Texas System, dated 2000)

Molecular target: p56Rb, carboxyl terminus of the Rb protein (Homo sapiens (Human), UniProt P06400)
Experiment: native polyacrylamide gel of the purified proteins, silver stain

binding result: binds
B1: chimeric p48 protein containing a modified C-terminus, encoded by plasmid pET-48NB (other)
chain: MADKEAAFDDAVEERVINEEYKIWKKNTPFLYDLVMTHALEWPSLTAQWLPDVTRPEGKDFSIHRLVLGTHTSDEQNHLVIASVQLPNDDAQFDASHYDSEKGEFGGFGSVSGKIEIEIKINHEGEVNRARYMPQNPCIIATKTPSSDVLVFDYTKHPSKPDPSGECNPDLRLRGHQKEGYGLSWNPNLSGHLLSASDDHTICLWDISAVPKEGKVVDAKTIFTGHTAVVEDVSWHLLHESLFGSVADDQKLMIWDTRSNNTSKPSHSVDAHTAEVNCLSFNPYSEFILATGSADKTVALWDLRNLKLKLHSFESHKDEIFQVQWSPHNETILASSGTDRRLNVWDLSKIGEEQSPEDAEDGPPELLFIHGGHTAKISDFSWNPNEPWVICSVSEDNIMQVWQMAENIYNDEDPEGSVDPAANKARKEAELAAANAEQ
